Test results from US20240052061A1 (published 2024).

T1: human ecto-nucleoside triphosphate diphosphohydrolase-3 (NTPDase3) (human, UniProt O75355 1-529)
T1 chain: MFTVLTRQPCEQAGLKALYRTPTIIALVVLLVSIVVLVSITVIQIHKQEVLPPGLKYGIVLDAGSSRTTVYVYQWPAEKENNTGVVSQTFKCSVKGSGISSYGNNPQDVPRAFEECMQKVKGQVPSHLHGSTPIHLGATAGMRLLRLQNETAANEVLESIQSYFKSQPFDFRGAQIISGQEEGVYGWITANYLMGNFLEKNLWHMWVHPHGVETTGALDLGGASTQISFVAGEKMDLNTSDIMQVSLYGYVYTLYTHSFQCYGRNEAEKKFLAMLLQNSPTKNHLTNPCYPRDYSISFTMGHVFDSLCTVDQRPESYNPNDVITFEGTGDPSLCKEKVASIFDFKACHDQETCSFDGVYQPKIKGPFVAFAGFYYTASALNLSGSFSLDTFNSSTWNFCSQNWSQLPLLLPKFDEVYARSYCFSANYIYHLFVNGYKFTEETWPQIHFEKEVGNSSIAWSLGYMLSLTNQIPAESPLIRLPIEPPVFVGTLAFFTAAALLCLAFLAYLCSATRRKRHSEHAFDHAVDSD


What was measured:
[1] = molecular target: T1, human ecto-nucleoside triphosphate …; test: flow cytometry; RT4 cells
[2] = molecular target: T1, human ecto-nucleoside triphosphate …; test: flow cytometry; CHO-hENTPD3 cells
[3] = molecular target: T1, human ecto-nucleoside triphosphate …; test: flow cytometry; COS7-hENTPD3 cells
[4] = molecular target: T1, human ecto-nucleoside triphosphate …; test: flow cytometry; HEK293T-hENTPD3 cells
[5] = molecular target: T1, human ecto-nucleoside triphosphate …; test: flow cytometry; CHO-hENTPD3 cells
[6] = molecular target: T1, human ecto-nucleoside triphosphate …; test: flow cytometry; COS7-hENTPD3 cells
[7] = molecular target: T1, human ecto-nucleoside triphosphate …; test: flow cytometry; HEK293T-hENTPD3 cells
[8] = molecular target: T1, human ecto-nucleoside triphosphate …; test: flow cytometry; CHO-hENTPD3 cells, 2h at 37°C
[9] = molecular target: T1, human ecto-nucleoside triphosphate …; test: flow cytometry; CHO-hENTPD3 cells, 20 min at 4°C
r3E9 = test: flow cytometry; RT4 cells; rabbit mAb
[10] = molecular target: T1, human ecto-nucleoside triphosphate …; test: flow cytometry; CHO-hENTPD3 cells
[11] = molecular target: T1, human ecto-nucleoside triphosphate …; test: flow cytometry; CHO-hENTPD3 cells
[12] = molecular target: T1, human ecto-nucleoside triphosphate …; test: flow cytometry; CHO-hENTPD3 cells
[13] = molecular target: T1, human ecto-nucleoside triphosphate …; test: flow cytometry; COS7-hENTPD3 cells
[14] = molecular target: T1, human ecto-nucleoside triphosphate …; test: flow cytometry; COS7-hENTPD3 cells
[15] = molecular target: T1, human ecto-nucleoside triphosphate …; test: flow cytometry; HEK293T-hENTPD3 cells

| Kd [1] [nM] | Kd [2] [nM] | Kd [3] [nM] | Kd [4] [nM] | Kd [9] [nM] | Binder | also measured |
| --- | --- | --- | --- | --- | --- | --- |
| 0.19 | 1.52 | 0.45 | 0.46 |  | 4F9 Hu/Ra (antibody, V domains shown) VH: QSVEESGGRLVTPGTPLTLTCTVSGFSLSSYAMGWVRQAPGKGLEFIGIITYNGNTYYASWAKGRFPISKTSSTTVDLKMTSPTTEDTATYFCARARYGGYSTNSYYLNIWGPGTLVTVSS VL: DVVMTQTPASVSAAVGGTVTINCQASENIYRILAWYQQKPGQRPKLLIYGASNLETGVPSRFKGSGSGTEYTLTISDLECDDAATYYCQGVLYNSNDSTFGGGTEVVVKG |  |
| 0.2 | 1.94 | 0.8 | 0.38 |  | 16D4 Hu/Ra (antibody, V domains shown) VH: QSVEESGGRLVTPGTPLTLTCTVSGFSLSSYAMGWVRQAPGKGLEFIGIITYNGGTYYASWAKGRFPISKTSSTTVDLKMTSPTTEDTATYFCARARYGGYSTNSYYLNIWGPGTLVTVSS VL: DVVMTQTPASVSAAVGGTVTINCQASENIYRVLAWYQQKPGQRPKLLIYGASNLETGVPSRFKGSGSGTEYTLTISDLECDDAATYYCQGVLYDNNDSTFGGGTEVVVKG |  |
| 0.06 | 1.59 | 0.54 | 0.33 | 1.82 | 8E1 Hu/Ra (antibody, V domains shown) VH: QSVEESGGRLVTPGTPLTLTCTVSGFSLSSYAMGWVRQAPGKGLEFIGIISYSGNTYYASWAKGRFPISKTSSTTVDLKMTSPTTEDTANYFCARARYGGYSTNSYYLNIWGPGTLVTVSS VL: DVVMTQTPASVEAAVGGTVTINCQASENIYRVLAWYQQKPGQRPKLLIYGASNLESGVPSRFKGSGSGTDYTLTISDLECDDAATYYCQGVVYNSDDSAFGGGTEVVVKG | Kd [5]: 0.43 nM; Kd [6]: 0.31 nM; Kd [7]: 2.76 nM; Kd [8]: 1.02 nM |
|  |  |  |  |  | hENTPD3 (RT4 cells) (enzyme) MFTVLTRQPCEQAGLKALYRTPTIIALVVLLVSIVVLVSITVIQIHKQEVLPPGLKYGIVLDAGSSRTTVYVYQWPAEKENNTGVVSQTFKCSVKGSGISSYGNNPQDVPRAFEECMQKVKGQVPSHLHGSTPIHLGATAGMRLLRLQNETAANEVLESIQSYFKSQPFDFRGAQIISGQEEGVYGWITANYLMGNFLEKNLWHMWVHPHGVETTGALDLGGASTQISFVAGEKMDLNTSDIMQVSLYGYVYTLYTHSFQCYGRNEAEKKFLAMLLQNSPTKNHLTNPCYPRDYSISFTMGHVFDSLCTVDQRPESYNPNDVITFEGTGDPSLCKEKVASIFDFKACHDQETCSFDGVYQPKIKGPFVAFAGFYYTASALNLSGSFSLDTFNSSTWNFCSQNWSQLPLLLPKFDEVYARSYCFSANYIYHLFVNGYKFTEETWPQIHFEKEVGNSSIAWSLGYMLSLTNQIPAESPLIRLPIEPPVFVGTLAFFTAAALLCLAFLAYLCSATRRKRHSEHAFDHAVDSD | Kd (r3E9): 0.22 nM |
|  |  |  |  | 20.9 | PBI #30 hIgG1 (antibody, V domains shown) VH: QVQLQESGGGLIQPGGSLRLSCAASGFTSSSSDYAMSWVRQAPGKGLEWVSSISGSGGSTYYADSVKGRFTISRDNSKNTLYVQMTSLTAEDTAVYYCAKVVGYSMYDYYYHYALDVWGQGTTVTVSS VL: QPVLTQPPSASGTPGQRVTISCSGSSSNIGSNTVNWYQQLPGTAPKLLIYSNNQRPSGVPDRFSGSKSGTSASLTISGLKTEDEAGYYCQSYDTSNVVFGGGTKVTVLG | Kd [10]: 1.64 nM |
|  |  |  |  |  | 38D5 hIgG1 (antibody, V domains shown) VH: EQQLLESGGGLVQPGGSLRLSCAASGIDFNNYGISWVRQAPGKGLEWIAYKYPGFGIRNYANSVKGRFTISSDNSKNTVYLQMNSLRAEDTAVYFCARGARYRHDDYGALNLWGPGTLVTVSS VL: DIQMTQSPSTLSASVGDRVTITCQASQSVTNLLAWYQQKPGKPPKLLIYGASNLESGVPSRFSGSGSGTEFTLTISSLQPDDFATYYCQSGYYSANTFGPGTKVDIK | Kd [11]: 0.56 nM; Kd [12]: 0.89 nM; Kd [13]: 0.52 nM; Kd [14]: 0.56 nM; Kd [15]: 4.34 nM |
|  |  |  |  |  | humanized 38D5 hIgG1 variant LC.1 (P43A) (antibody, V domains shown) VH: EQQLLESGGGLVQPGGSLRLSCAASGIDFNNYGISWVRQAPGKGLEWIAYKYPGFGIRNYANSVKGRFTISSDNSKNTVYLQMNSLRAEDTAVYFCARGARYRHDDYGALNLWGPGTLVTVSS VL: DIQMTQSPSTLSASVGDRVTITCQASQSVTNLLAWYQQKPGKAPKLLIYGASNLESGVPSRFSGSGSGTEFTLTISSLQPDDFATYYCQSGYYSANTFGPGTKVDIK | Kd [12]: 1.5 nM; Kd [13]: 0.85 nM |
| 2.63 | 8.3 | 2.8 | 3.06 |  | 38D12 Hu/Ra (antibody, V domains shown) VH: QSVEESGGRLVTPGTPLTLTCTVSGFSLSSYVINWVRQAPGKGLEWIGTISSSGSTYYASWAKGRFTISTTSSTTVDLKITSPTTEDTATYFCARGADGAFISDYFNIWGPGTLVTVSS VL: DIVMTQTPSSVSAAVGGTVTIKCQANENIDSWLAWYQQKPGQRPKLLIYYASTLASGVPSRFKGSGSGTEYTLTISDLECADGATYYCQSYDTISDYGVGFGGGTEVVVKG |  |
|  | 26.6 | 1.93 | 2.22 | 22.3 | 38D5 Hu/Ra (antibody, V domains shown) VH: QELVESGGGLVQPGGSLKLSCKASGIDFNNYGISWVRQAPGKGLEWIAYKYPGFGIRNYANSVKGRFTISSDNAQNTVFLQMTSLAASDTATYFCARGARYRHDDYGALNLWGPGTLVTVSS VL: DIVMTQTPPSVSAAVGGTVTINCQASQSVTNLLAWYQQKPGQPPKLLIYGASNLESGVPSRFRGSGSGTEFTLTISGMKAEDAATYYCQSGYYSANTFGAGTKVGIKR | Kd [11]: 1.11 nM; Kd [14]: 0.96 nM; Kd [15]: 6.56 nM; Kd [8]: 2.54 nM |
| 1.15 | 0.95 | 0.3 | 0.15 |  | 44H5 Hu/Ra (antibody, V domains shown) VH: QEQLEESGGDLVKPEGSLTLTCTASGFDSSSTYYMCWVRQAPGKGLEWSGCIYTGGLTYYASWAKGRFTISKTSSTTVTLQMTSLTAADTATYFCASYIGSRFYMPGFSLWGPGTLVTVSS VL: AIVMTQTPSSKSVPVGDTVTINCQASESIYSNNRLAWFQQKPGQPPKLLIYLASTLASGVPSRFKGSGSGTQFTLTISDVVCDDAATYYCAGYKGSSTDGTAFGGGTEVVVKG |  |
